Assay results as given in patent publication US20190071490A1, “Preventing Post-Ictal Headaches” (Beth Israel Deaconess Medical Center, Inc., priority 2017, published 2019).

T1: human α-CGRP (Homo sapiens, UniProt P06881)
T1 construct: 1-37 (WT); purchased GenScript Corporation or Global Peptide Services
T1 sequence (P06881 83-119 limits assumed): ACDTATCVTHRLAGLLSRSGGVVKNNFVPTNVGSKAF

T2: rat α-CGRP (Rattus norvegicus, UniProt P01256)
T2 construct: rat α (1-37); purchased GenScript Corporation or Global Peptide Services
T2 sequence (P01256 83-119 limits assumed): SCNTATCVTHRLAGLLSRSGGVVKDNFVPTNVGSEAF


Tests used:
human α-CGRP = molecular target: T1, human α-CGRP; experiment: Biacore SPR affinity of Fab fragments to N-biotinylated human α-CGRP on SA chip; format: binding; conditions: 37° C., screening mode except underlined values
Method in brief: (§1)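 HBS-EP pH 7.4 running buffer at 25° C. or 37° C.; N-biotinylated CGRP captured on streptavidin SA chip (<50 RU for kinetics), Fab titrated over surface with regeneration by 25 mM NaOH/25% ethanol. Titrations globally fit to 1:1 Langmuir model; KD=koff/kon, with 2-hour dissociation for very slow off-rates.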

rat α-CGRP = molecular target: T2, rat α-CGRP; experiment: Biacore SPR affinity of Fab fragments to N-biotinylated rat α-CGRP on SA chip; format: binding; conditions: 37° C., screening mode except underlined values
Method in brief: as §1

α-human koff (human α-CGRP) [s⁻¹]	α-rat koff (rat α-CGRP) [s⁻¹]	α-rat koff (1/s) (rat α-CGRP)	Molecule
0.000148	0.00104	–	M24: G1 variant; L1 R28L; HC-FW3 L99T A100V (antibody, V domains shown) VH: EVQLVESGGGLVQPGGSLRLSCAASGFTFSNYWISWVRQAPGKGLEWVAEIRSESDASATHYAEAVKGRFTISRDNAKNSLYLQMNSLRAEDTAVYYCTVYFDYGLAIQNYWGQGTLVTVSS VL: EIVLTQSPATLSLSPGERATLSCKASKLVTTYVSWYQQKPGQAPRLLIYGASNRYLGIPARFSGSGSGTDFTLTISSLEPEDFAVYYCSQSYNYPYTFGQGTKLEIK
0.000148	0.000924	–	M26: G1 variant; L1 R28N; H2 A57G; HC-FW3 L99T A100V (antibody, V domains shown) VH: EVQLVESGGGLVQPGGSLRLSCAASGFTFSNYWISWVRQAPGKGLEWVAEIRSESDGSATHYAEAVKGRFTISRDNAKNSLYLQMNSLRAEDTAVYYCTVYFDYGLAIQNYWGQGTLVTVSS VL: EIVLTQSPATLSLSPGERATLSCKASKNVTTYVSWYQQKPGQAPRLLIYGASNRYLGIPARFSGSGSGTDFTLTISSLEPEDFAVYYCSQSYNYPYTFGQGTKLEIK
0.000357	0.00341	–	M27: G1 variant; L1 R28N T30A; HC-FW3 L99T A100V (antibody, V domains shown) VH: EVQLVESGGGLVQPGGSLRLSCAASGFTFSNYWISWVRQAPGKGLEWVAEIRSESDASATHYAEAVKGRFTISRDNAKNSLYLQMNSLRAEDTAVYYCTVYFDYGLAIQNYWGQGTLVTVSS VL: EIVLTQSPATLSLSPGERATLSCKASKNVATYVSWYQQKPGQAPRLLIYGASNRYLGIPARFSGSGSGTDFTLTISSLEPEDFAVYYCSQSYNYPYTFGQGTKLEIK
0.000933	–	No binding	M83: G1 variant; L1 R28N T30V; L2 A51H L56T; H2 E54K A57N S58M; H61F (printed in L1 column); HC-FW3 L99T A100V (antibody, V domains shown) VH: EVQLVESGGGLVQPGGSLRLSCAASGFTFSNYWISWVRQAPGKGLEWVAEIRSKSDNMATFYAEAVKGRFTISRDNAKNSLYLQMNSLRAEDTAVYYCTVYFDYGLAIQNYWGQGTLVTVSS VL: EIVLTQSPATLSLSPGERATLSCKASKNVVTYVSWYQQKPGQAPRLLIYGHSNRYTGIPARFSGSGSGTDFTLTISSLEPEDFAVYYCSQSYNYPYTFGQGTKLEIK
0.00013	0.000799	–	M23: G1 variant; L1 R28G; HC-FW3 L99T A100V (antibody, V domains shown) VH: EVQLVESGGGLVQPGGSLRLSCAASGFTFSNYWISWVRQAPGKGLEWVAEIRSESDASATHYAEAVKGRFTISRDNAKNSLYLQMNSLRAEDTAVYYCTVYFDYGLAIQNYWGQGTLVTVSS VL: EIVLTQSPATLSLSPGERATLSCKASKGVTTYVSWYQQKPGQAPRLLIYGASNRYLGIPARFSGSGSGTDFTLTISSLEPEDFAVYYCSQSYNYPYTFGQGTKLEIK

More lines, now with the values behind:

Molecule	α-human koff (human α-CGRP) [s⁻¹]	α-rat koff (rat α-CGRP) [s⁻¹]	α-rat koff (1/s) (rat α-CGRP)
M81: G1 variant; L1 R28N T30S; L2 L56S; H2 E54K A57N S58E; HC-FW3 L99T A100V (antibody, V domains shown) VH: EVQLVESGGGLVQPGGSLRLSCAASGFTFSNYWISWVRQAPGKGLEWVAEIRSKSDNEATHYAEAVKGRFTISRDNAKNSLYLQMNSLRAEDTAVYYCTVYFDYGLAIQNYWGQGTLVTVSS VL: EIVLTQSPATLSLSPGERATLSCKASKNVSTYVSWYQQKPGQAPRLLIYGASNRYSGIPARFSGSGSGTDFTLTISSLEPEDFAVYYCSQSYNYPYTFGQGTKLEIK	0.00049	0.00429	–
M20: G1 variant; L1 R28W; HC-FW3 L99R A100L (antibody, V domains shown) VH: EVQLVESGGGLVQPGGSLRLSCAASGFTFSNYWISWVRQAPGKGLEWVAEIRSESDASATHYAEAVKGRFTISRDNAKNSLYLQMNSLRAEDTAVYYCRLYFDYGLAIQNYWGQGTLVTVSS VL: EIVLTQSPATLSLSPGERATLSCKASKWVTTYVSWYQQKPGQAPRLLIYGASNRYLGIPARFSGSGSGTDFTLTISSLEPEDFAVYYCSQSYNYPYTFGQGTKLEIK	0.000136	0.00144	–
M28: G1 variant; L1 R28N T30D; H2 E54R A57N; HC-FW3 L99T A100V (antibody, V domains shown) VH: EVQLVESGGGLVQPGGSLRLSCAASGFTFSNYWISWVRQAPGKGLEWVAEIRSRSDNSATHYAEAVKGRFTISRDNAKNSLYLQMNSLRAEDTAVYYCTVYFDYGLAIQNYWGQGTLVTVSS VL: EIVLTQSPATLSLSPGERATLSCKASKNVDTYVSWYQQKPGQAPRLLIYGASNRYLGIPARFSGSGSGTDFTLTISSLEPEDFAVYYCSQSYNYPYTFGQGTKLEIK	9.96e-05	0.00125	–
M21: G1 variant; L1 R28W; HC-FW3 L99S (antibody, V domains shown) VH: EVQLVESGGGLVQPGGSLRLSCAASGFTFSNYWISWVRQAPGKGLEWVAEIRSESDASATHYAEAVKGRFTISRDNAKNSLYLQMNSLRAEDTAVYYCSAYFDYGLAIQNYWGQGTLVTVSS VL: EIVLTQSPATLSLSPGERATLSCKASKWVTTYVSWYQQKPGQAPRLLIYGASNRYLGIPARFSGSGSGTDFTLTISSLEPEDFAVYYCSQSYNYPYTFGQGTKLEIK	0.000142	0.000695	–
M22: G1 variant; L1 R28W; HC-FW3 L99T (antibody, V domains shown) VH: EVQLVESGGGLVQPGGSLRLSCAASGFTFSNYWISWVRQAPGKGLEWVAEIRSESDASATHYAEAVKGRFTISRDNAKNSLYLQMNSLRAEDTAVYYCTAYFDYGLAIQNYWGQGTLVTVSS VL: EIVLTQSPATLSLSPGERATLSCKASKWVTTYVSWYQQKPGQAPRLLIYGASNRYLGIPARFSGSGSGTDFTLTISSLEPEDFAVYYCSQSYNYPYTFGQGTKLEIK	0.000116	0.0011	–
M82: G1 variant; L1 R28N T30V; L2 A51H L56T; H2 A57N; HC-FW3 L99T A100V (antibody, V domains shown) VH: EVQLVESGGGLVQPGGSLRLSCAASGFTFSNYWISWVRQAPGKGLEWVAEIRSESDNSATHYAEAVKGRFTISRDNAKNSLYLQMNSLRAEDTAVYYCTVYFDYGLAIQNYWGQGTLVTVSS VL: EIVLTQSPATLSLSPGERATLSCKASKNVVTYVSWYQQKPGQAPRLLIYGHSNRYTGIPARFSGSGSGTDFTLTISSLEPEDFAVYYCSQSYNYPYTFGQGTKLEIK	0.000877	0.00699	–
M84: G1 variant; L1 R28N T30V; L2 A51H L56T; H2 E54N A57N; HC-FW3 L99T A100V (antibody, V domains shown) VH: EVQLVESGGGLVQPGGSLRLSCAASGFTFSNYWISWVRQAPGKGLEWVAEIRSNSDNSATHYAEAVKGRFTISRDNAKNSLYLQMNSLRAEDTAVYYCTVYFDYGLAIQNYWGQGTLVTVSS VL: EIVLTQSPATLSLSPGERATLSCKASKNVVTYVSWYQQKPGQAPRLLIYGHSNRYTGIPARFSGSGSGTDFTLTISSLEPEDFAVYYCSQSYNYPYTFGQGTKLEIK	0.00108	0.0176	–
